The RNAGym collection of RNA variant scans (doi:10.1073/pnas.2313332121)
For some assays here: Fewer inactive variants are shown than the library holds.

B1: TPR 5TU (parent)
chain: GGAUCUUCUCGAUCUAACAAAAAAGACAAAUCUGCCACAAAGCUUGAGAGCAUCUUCGGAUGCAGAGGCGGCAGCCUUCGGUGGCGCGAUAGCGCCAACGUUCUCAACUAUGACACGCAAAACGCGUGCUCCGUUGAAUGGAGUUUAUCAUG
B2: TPR t1 (parent)
chain: GACCAAUCUGCCCUCAGAGCUCGAGAACAUCUUCGGAUGCAGAGGAGGCAGGCUUCGGUGGCGCGAUAGCGCCAACGUCCUCAACCUCCAAUGCAUCCCACCACAUGAUGAUGCCUGAAGAGCCUUGGUUUUUUG

Variants of: B1
Experiment: polymerase ribozyme fitness, log enrichment relative to wild type (log ratio); higher = more active; in vitro selection for triplet polymerase activity
Method in brief: (§1)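 Fitness measures genotype enrichment against wild-type enrichment on a logarithmic scale, with inverse-variance-weighted averaging of replicates. The logarithm is base 2, and genotypes were kept only with ≥10 input reads and ≥1 read per output in Illumina sequencing. The sequenced libraries came from one triplicate in vitro selection round, including frozen incubation at −7 °C, of PCR-built, transcribed mutant libraries of each subunit of a heterodimeric triplet polymerase ribozyme.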

Variant | polymerase ribozyme fitness (log ratio)
A3C A22U A37G C54G C57U C85U G88C G117C C129U | ≤ -4.2
A3C A23C G74A C85A C103U U130A | ≤ -4.2
A3C A23U A41C C43U U61A A64C C96U A107C A115G | ≤ -4.2
A3C A12G C87G | -3.93
A3C A17G C69G C116G A122G | -1.99
A3C A17C A19U G25C C93U A115G A120U | ≤ -4.2
A3C A22U A49U A52G U56A | -3.02
A3C A12U G58C C118U | -1.52
A3C A16G A24U G48U G74U G83A A107C U130A | ≤ -4.2
A3C A41G G50C U53G G67U G86C G128U C129U U146G C149U | ≤ -4.2

Variants of: B2
Experiment: as above
Method in brief: as §1

Variant | polymerase ribozyme fitness (log ratio)
G61U C98A | -3.78
C31U G127C | -3.6
A29U C88U | -1.36
A6G A50C C70G | -3
A66C | -1.32
A66C G69A | -3.84
C88G C102U G117U | -6.89
C13G C62A C124A | 0.6
C73A C79G | -2.94
G69A C73G G120U | -5.64
G60A C114U | -1.78
G39A G71U A84U | -0.797
A37C A83U | -0.456
C34U G120A U130A | -4.02
A103C C123A C124A | -3.52
G58U G71A G77A | 0.0877
C40U A83G G128A U129G | -3.53
C8U U21A C22U A27G C31G C56U G60A C86A U87G C115A A121C | -5.4
C12A G60A | -1.28
G45U C72U C88U G113U U129A | -5.57
G63A C115G | -3.51
C12G A27G | -1.67
C8A C11G A103C A119U G120A | -3.31

Variant | polymerase ribozyme fitness (log ratio)
C13U G57A C102A G127C | -3.71
C104U U106A | -0.522
C20A A84C C88A U92G C114A | -4.5
G35C C79U C104A C124A | -5.25
A26G G45C A75U | -4.25
A6U C28G C72U C102U A103C | -7.04
C13U G45U C82U | -0.895
C12U C15G G71C G127C | -4.84
C4U G47A C56U C73U C101U A119G G120U G127A | -0.428
G45A C72A G117U | -2.7
U59A G117A | -1.36
A18C A66U | -5.53
C28U G44U C62U G63C G110C U126A U132C | -4.61
A83G G120C | 0.655
G42C C72A | -1.16
A24C A50C G52U A111C | -6.93
C40U U130G | -0.974
C12U C20A C28U A37G G42A G45U A46U G48A C82U G110A A111U A119G | -4.23
C3A G48A C72U A84G | -1.58
A43C U112G | -2.77
U9C C11U G17A | -3.22
C4U A18C C53A C88G | -3.41
C20A C64G C114A | -7.24

Variant | polymerase ribozyme fitness (log ratio)
C88G G110C | -5.26
C72A C85A | 0.00801
G36A C73G C101A U106C | -3.26
C8U C73U U78C | 0.277
G36A G69A | -3.69
C72A U78C | -0.145
C62G A83U U96A | -4.56
A43G C64U C82G C114U A119G U131A | -1.99
C4G C8G C40G C124U | 0.299
G61U U133G | -0.566
C97G A119G | -2.68
C73G U130C | -0.482
G93C A105U C114G A119G | -7.51
U7A A37U U78A | 0.116
C73U U78C U96A | -1.03
C85A A95C | -2.61
G17A G63A | -4.79
A24G A90U | -2.52
G44U G61A C99U | -4.01
G47U C64U | -1.51
C40A G61A C73U C88U G113U | -6.64
C11U C20G U96G C123U | -2.94
C11A G77U U87G U106G G113C U125G | -4.71

Variant | polymerase ribozyme fitness (log ratio)
C31U A37G C115A | -4.73
G42A G117U | -3.37
G60A C82A U106A G120A | 0.0586
A18C G71C | -4.19
C8U C53U | 0.0512
G10U G19C A37U C72A C73U C123G U130C | -2.79
G10C C85U | -1.64
G42A C80U | -2.64
G25U A37U | -5.61
A37G C72G C73U A74U | -6.02
G17U C49U C124G G127C | -0.942
C20U C40U G60U C82A U96A C124A | -1.54
C3A C12A G58A A83C | -2.19
C72U U96G | -1.42
G10C C15A | -2.21
C3U G45C | -2.34
A43U G60C C82G | -4.23
A6U G10U C12U C15G C72G C86A | -3.18
A46U C104A | -2.88
A27C G47U C73U G77U C86G C123A U126A | -4.61
A37U A50G G52A A111G G117A | -2.93
G61C A83G | -3.02
U81A G120A | -0.668

Variant | polymerase ribozyme fitness (log ratio)
A2G C12G G17A U54C C88U A91U C101U A105U C114G | -5.19
G51C G58A A100C C124U | -4.88
A5C G60A C101U | -0.437
C40G G57A A84C U112A G122A | -3.59
A18U G69C C85A C89G | -6.03
C13A A41G G69A | -5.37
C76G C102U C104A | -1.03
C104A A108G U112A A118G G122U | -5.36
U54G G61A C80A G120U | -5.8
C4G U7C C56U G60U C101A | -6.75
C13A G60U G69U | -4.92
A6U C22A C49U C72U | -5.16
U9G C12G G36A C101G | -1.32
A6C C12A U54G | -1.08
G60C G120U | 0.528
U7G A29U G42A C53U C62U | -3.19
U9A U33A G36U C89G C124A | -5.28
G71A A74C A105C | -5.44
C13U A26U | -3.03
C13A A29G C70U A95U C124A | -1.57
U78C A83C C94U G110A A118U G120U U132C | -2.85
C12G U33G | -4.76
C72G C73U G128U | -3.92

Variant | polymerase ribozyme fitness (log ratio)
A29U C53U C72G A83U U96A | -4.12
C3U G77A C94G | -1.2
C34A C72U C85A G113A | -5.11
C11A C56A A100C | -3.86
A46U U130G | -1.6
G61A U109A | -5.19
G61A A91C | -0.737
C20A G60A | -2.83
U14G A43U G63C G71U C88G | -7.34
U9C C12U U81A C89A | -1.67
C12A C64U C72U | -1.01
C22A U81C | -5.67
G45U A84C U96A G110A U131A | -3.98
U54C U87A A95U U130A | -2.56
C13U U78C C115U | 1.27
A74U U112A G128A | -1.59
A46C C104A A118U C123G | -1.15
C28U G63C | -3.08
C53G C70G C104U C114U G120U C123G C124A | -6.46
C8A U54G A111U U116G A119U U130G | -7.62
C11U C28G A37G G120U U130A | -2.33
C115A C124U | 0.564
A46C G120A | -0.00915

Variant | polymerase ribozyme fitness (log ratio)
C40G C62U C72A A83G | -3.49
C12U C13U A43G G61A | -2.1
C13U G120A | 1.58
G60U C97A C104U U126G | -5.83
C64U C114A | -1.4
A29G A66G | -1.88
G61A A100U | -0.262
A6G G71C A118U | -0.254
C49A G57U G127U | -1.6
G45U G52A C115U G135U | -4.62
C11U C94A | -2.35
A24U G60A | -4.63
G45A G61U U130G | -0.472
C70A A84U U87A | -2.24
C4G C8G A26G G120U | -0.664
U9G G10C C11A C15A A37G U78C C85U A95U C123U | -3.97
A66G C79G G120A | -3.49
C8G C73A G120C | 2.29
G35A A37U U87G | -5.66
